Positions count from the first letter of the chain named.

The target in assay [1] is T1, antigen human CLDN18.2, His-tagged (human, UniProt P56856-2 1-261, limits assumed).
T1 construct: Recombinant antigen used in the Fortebio assay (His-tagged, captured on NTA probe); also called His-tagged antigen; not shown: His tag
In words: BLI (Fortebio), His-tagged antigen on NTA probe; ratio to 16K15-xiIgG. How it is done:
(§1) The binding kinetic parameters of the chimeric antibodies and the humanized antibodies thereof to the antigen human CLDN18.2 were analyzed by a Fortebio (BLITZ pro1.1.0.28) instrument. Before performing the assay, an NTA bioprobe was soaked in PBS for 10 min, and the probe was then placed in PBS containing 100 nM antigen for 300 s to capture the His-tagged antigen. The probe was further subjected to a binding reaction with 100 nM antibody for a binding time of 400 s, and the probe was then transferred to PBS and subjected to a dissociation reaction for 600 s. When the assay was finished, data from which the response value of a blank control had been deducted were fitted to a 1:1 Langmuir binding model using software, and then the kinetic constants for antigen-antibody binding were calculated.

The target of assay [2] is T1, antigen human CLDN18.2, His-tagged. Nature of the assay: SPR (BIAcore), antibody captured by anti-human Fc, antigen as analyte. How it is done: Referring to the instructions provided in the Human Antibody Capture Kit (cat No. BR-1008-39, Lot 10261753) from GE Healthcare, the analytical channel and the control sample channel on a CM5 sensor chip were first saturated and coupled with the maximum amount of anti-human Fc antibody, then buffers containing anti-human CLDN18.2 chimeric antibodies, humanized antibodies or a control antibody IMAB362 at 7.5 μg/ml were allowed to flow through the analytical channel and uniformly distribute. Finally, antigen samples diluted in gradient (the initial concentration was 20 nM and diluted by 1:3 to get 8 concentrations, and the concentration 0.741 nM was set to be repeated) were allowed to flow through both the analytical channel and the sample channel, and the photoreactions upon the binding of antibody to antigen were measured. Subsequently, the association constant Kon and dissociation constant Koff and affinity constant KD of each antibody were finally obtained by instrument software fitting analysis.

Assay [3] shares this target. Nature of the assay: BLI (Fortebio), His-tagged antigen on NTA probe, 100 nM antibody, 1:1 fit. The method, then: as §1
The target in assay [4] is human CLDN18.2 expressed on cell surfaces (human) (UniProt P56856). In words: cell-based or functional assay.
Assay [5] concerns the target human CLDN18.1 expressed on cell surfaces (human) (UniProt P56856). Nature of the assay: cell-based or functional assay.
The target of assay [6] is T2, human CLDN18.2 expressed on cell surfaces (human, UniProt P56856-2 1-261). Nature of the assay: cell-based or functional assay.
The target in assay [7] is T2, human CLDN18.2 expressed on cell …. In words: cell-based or functional assay. The source holds these as a separate data set.
Assay [8] addresses T1, antigen human CLDN18.2, His-tagged. In words: BLI (Fortebio), His-tagged antigen on NTA probe; ratio to 8K13-xiIgG. The method, then:
as §1
For orientation: BLI is a label-free optical method that tracks binding on a fibre tip over time.

B1: 16K15-xiIgG (antibody, V domains shown)
VH: EVMLVESGGGLVRPGGSLKLSCAGSGITLSTYAMSWVRQTPERRLEWVASIISGGITYYLDSVKGRFTISRDNARNILYLQMSSLRSEDTAIYYCARKYHGNALDYWGQGTSVTVSL
VL: DIVMTQSPSSLPVTAGETVTMRCKSSQSLLNSGNQRNYLTWYQRKPGQPPKKLIYWASTRESGVPDRFTGSGSGTDFTLTISGVQAEDLAVYYCQNNYFYPLTFGAGTKLELKR
notes: Murine variable regions on human IgG1 / kappa constant regions; also called 16K15 chimeric antibody
The term Kd denotes the equilibrium constant for the complex coming apart. Low values mean tighter binding, high ones weaker binding. Usually koff stands for a measure of how fast the partners let go of each other. High values mean a short-lived complex, low ones a long-lived complex. The kon is a measure of how fast the partners come together. For the molecule B1, the “Koff/Koff(Xi-IgG)” value in assay [1] is 1. Besides, in assay [2], binding was characterised by a dissociation constant (Kd) of 13.5 nM, the koff worked out at 0.00144 s⁻¹ and the kon stood at 107000 M⁻¹ s⁻¹. In assay [3], this molecule registered a Kd of 0.557 nM, a Response of 0.261, a koff of 0.000154 s⁻¹ and a kon of 276000 M⁻¹ s⁻¹.

B2: 8K13 (8K13-hz24) scfv, as CAR on T cells (scFv, not shown: small tags and cut ends)
scFv: QVQLVQSGAEVKKPGSSVKVSCKASGYAFSNYWMNWVRQAPGQGLEWMGQIYPGSGDTKYSGKFQSRVTITADKSTNTAYMELSSLRSEDTAVYYCARFYYGNVMDYWGQGTLVTVSSGSTSGGGSGGGSGGGGSSDIVLTQSPDSLAVSLGERATINCKSSQTLLSGGNQKNYLTWYQQKPGQPPKLLIYWASTRESGVPDRFSGSGSGTDFTLTISSLQAEDLAVYYCQQGYSYPLTFGQGTKLEIK
B2: the Human IFNγ detected in the supernatants of the culture systems (CAR-T cells with CHO-claduin18.2) in assay [4] was 75500. In assay [5], this molecule registered a Human IFNγ detected in the supernatants of the culture systems (CAR-T cells with CHO-claduin18.1) of 4670.

B3: 16k15 (16K15-hz22) scfv, as CAR on T cells (scFv, not shown: small tags and cut ends)
scFv: EVQLVESGGGLVQPGGSLRLSCAGSGITLSTYAMSWVRQAPGKGLEWVSSIISGGITYYLDSVKGRFTISRDNAKNTLYLQMSSLRAEDTAVYYCARKYHGNALDYWGQGTLVTVSSGSTSGGGSGGGSGGGGSSDIVMTQSPDSLAVSLGERATINCKSSQSLLSSGNQRNYLTWYQQKPGQPPKKLIYWASTRESGVPDRFSGSGSGTDFTLTISSLQAEDLAVYYCQNNYFYPLTFGQGTKLEIK
B3 had a Human IFNγ detected in the supernatants of the culture systems (CAR-T cells with CHO-claduin18.2) in assay [4] of 79200. This molecule also had a Human IFNγ detected in the supernatants of the culture systems (CAR-T cells with CHO-claduin18.1) in assay [5] of 60300.

B4: 52E22 (52E22-hz12) scfv, as CAR on T cells (scFv, not shown: small tags and cut ends)
scFv: QIQLVQSGSELKKPGASVKVSCKASGYTLTNYGMNWVRQAPGQGLEWMGWIRPNTGEPTYAEDFKGRFVFSLDTSVATAYLQITSLKAEDTAVYYCARLYRGNTLDNWGQGTLVTVSSGSTSGGGSGGGSGGGGSSDIVMTQSPDSLAVSLGERATINCKSSQNLLSSGNQRNYLTWYQQKPGQPPKLLIYWASTRESGVPDRFSGSGSGTDFTLTISSLQAEDLAVYYCQQGYSFPFTFGQGTKLEIK
In assay [4], B4 returned a Human IFNγ detected in the supernatants of the culture systems (CAR-T cells with CHO-claduin18.2) of 78900. Further, in assay [5], the Human IFNγ detected in the supernatants of the culture systems (CAR-T cells with CHO-claduin18.1) came to 4540.

B5: 8K13-hz24 (antibody, human IgG1, V domains shown)
VH: QVQLVQSGAEVKKPGSSVKVSCKASGYAFSNYWMNWVRQAPGQGLEWMGQIYPGSGDTKYSGKFQSRVTITADKSTNTAYMELSSLRSEDTAVYYCARFYYGNVMDYWGQGTLVTVSS
VL: DIVLTQSPDSLAVSLGERATINCKSSQTLLSGGNQKNYLTWYQQKPGQPPKLLIYWASTRESGVPDRFSGSGSGTDFTLTISSLQAEDLAVYYCQQGYSYPLTFGQGTKLEIK
notes: Humanized; also called 8K13-hz24 IgG; 8K13-24 IgG
For the molecule B5, in assay [6], the “ADCC reporter EC50 (Jurkat NFAT-luciferase effector cells), BxPC3 target cells” value was determined as 0.304 nM; the “ADCC reporter EC50 (Jurkat NFAT-luciferase effector cells), CHOK1 target cells” value was found to be 0.589 nM; the “ADCC reporter EC50 (Jurkat NFAT-luciferase effector cells), NCI-N87 target cells” value came out at 0.15 nM. In addition, in assay [7], the “CDC EC50, BxPC3 cells stably expressing human CLDN18.2 (CCK-8)” value was determined as 28.5 nM; the “CDC EC50, CHOK1 cells stably expressing human CLDN18.2 (CCK-8)” value was 21.3 nM; the “CDC EC50, NCI-N87 cells stably expressing human CLDN18.2 (CCK-8)” value turned out to be 57.7 nM. In assay [8], the “Koff/Koff(Xi-IgG)” value was 3.5. In assay [2], binding was put at a Kd of 28.5 nM, the koff stood at 0.00202 s⁻¹ and the kon is 70900 M⁻¹ s⁻¹. Moreover, in assay [3], the Kd came out at 1.51 nM, the Response was 0.133, the koff was determined as 0.000399 s⁻¹ and the kon was determined as 264000 M⁻¹ s⁻¹.

B6: 16K15-hz00 (antibody, human IgG1, V domains shown)
VH: EVQLVESGGGLVQPGGSLRLSCAASGITLSTYAMSWVRQAPGKGLEWVSSIISGGITYYLDSVKGRFTISRDNAKNSLYLQMNSLRAEDTAVYYCARKYHGNALDYWGQGTLVTVSS
VL: B5 VL with L4M, T28S, S31N, G32S, K36R, L89V, Q96N, G97N, S99F
notes: Humanized (direct CDR graft)
As for B6, the “Koff/Koff(Xi-IgG)” value in assay [1] was found to be 0.14. In assay [3], this molecule registered a Kd of 0.0895 nM, a Response of 0.176, a koff of 2.15e-05 s⁻¹ and a kon of 240000 M⁻¹ s⁻¹.

B7: 16K15-hz22 (antibody, human IgG1, V domains shown)
VH: B6 VH with A24G, S77T, N83S
VL: B5 VL with L4M, T28S, G32S, K36R, L52K, Q96N, G97N, S99F
notes: Humanized; also called 16K15-hz22 IgG; 16K15-22 IgG
Turning to B7, in assay [6], the “ADCC reporter EC50 (Jurkat NFAT-luciferase effector cells), BxPC3 target cells” value came to 0.176 nM; the “ADCC reporter EC50 (Jurkat NFAT-luciferase effector cells), CHOK1 target cells” value was determined as 0.712 nM; the “ADCC reporter EC50 (Jurkat NFAT-luciferase effector cells), NCI-N87 target cells” value worked out at 0.0677 nM. For the same molecule, in assay [7], the “CDC EC50, BxPC3 cells stably expressing human CLDN18.2 (CCK-8)” value was 12.2 nM; the “CDC EC50, CHOK1 cells stably expressing human CLDN18.2 (CCK-8)” value stood at 5.2 nM; the “CDC EC50, NCI-N87 cells stably expressing human CLDN18.2 (CCK-8)” value was determined as 17.4 nM. Besides, in assay [1], the “Koff/Koff(Xi-IgG)” value was 1.86. In assay [2], the Kd came to 9.85 nM, the koff was 0.000563 s⁻¹ and the kon is 57100 M⁻¹ s⁻¹. In assay [3], this molecule showed a Kd of 1.1 nM, a Response of 0.266, a koff of 0.000286 s⁻¹ and a kon of 259000 M⁻¹ s⁻¹.

B8: 16K15-hz11 (antibody, human IgG1, V domains shown)
VH: B6 VH with A24G
VL: DIVMTQSPDSLAVSLGERATINCKSSQSLLNSGNQRNYLTWYQQKPGQPPKKLIYWASTRESGVPDRFSGSGSGTDFTLTISSLQAEDLAVYYCQNNYFYPLTFGQGTKLEIKR
notes: Only positions of reverse mutations are printed; copies: 2 + 2
For the molecule B8, the “Koff/Koff(Xi-IgG)” value in assay [1] was 0.65. In assay [3], this molecule had a Kd of 0.535 nM, a Response of 0.17, a koff of 0.0001 s⁻¹ and a kon of 188000 M⁻¹ s⁻¹.

The record behind these values is US20230250168A1 (MABWELL SHANGHAI BIOSCIENCE, published 2023).
